{"source": "paper PMC6143741", "assay_in_all_cases": "MYTH quantitative β-Gal activity assay", "key": {"[1]": {"molecular_target": "TbMCUc without the mitochondrial targeting signal, MYTH bait or prey", "conditions": "n = 3; 8 colonies for each independent experiment; parent: est. 140; read off a plot"}, "[2]": {"molecular_target": "TbMCUd without the mitochondrial targeting signal, MYTH bait or prey", "conditions": "n = 3; 8 colonies for each independent experiment; parent: est. 120; read off a plot"}, "TbMCUcΔ2": {"molecular_target": "TbMCUcΔ2", "conditions": "n = 3; 8 colonies were used in each independent experiment; read off a plot"}, "TbMCUcΔ3": {"molecular_target": "TbMCUcΔ3", "conditions": "n = 3; 8 colonies were used in each independent experiment; read off a plot"}, "TbMCUcΔ4": {"molecular_target": "TbMCUcΔ4", "conditions": "n = 3; 8 colonies were used in each independent experiment; read off a plot"}, "TbMCUdΔ2": {"molecular_target": "TbMCUdΔ2", "conditions": "n = 3; 8 colonies were used in each independent experiment; read off a plot"}, "TbMCUdΔ3": {"molecular_target": "TbMCUdΔ3", "conditions": "n = 3; 8 colonies were used in each independent experiment; read off a plot"}, "TbMCUdΔ4": {"molecular_target": "TbMCUdΔ4", "conditions": "n = 3; 8 colonies were used in each independent experiment; read off a plot"}}, "data": [{"substance": "TbMCU without the mitochondrial targeting signal, MYTH bait or prey Q213A; V216F; I217F; F222A", "values": [{"measurement": "response", "setting": "[1]", "value": 100, "unit": "units"}, {"measurement": "response", "setting": "[2]", "value": 88, "unit": "units"}]}, {"substance": "TbMCU without the mitochondrial targeting signal, MYTH bait or prey TMH1 and TMH2 each replaced by WALP (…)", "values": [{"measurement": "response", "setting": "[1]", "value": 15, "unit": "units"}, {"measurement": "response", "setting": "[2]", "value": 12, "unit": "units"}]}, {"substance": "TbMCU without the mitochondrial targeting signal, MYTH bait or prey TMH1 replaced by WALP (…)", "values": [{"measurement": "response", "setting": "[1]", "value": 82, "unit": "units"}, {"measurement": "response", "setting": "[2]", "value": 78, "unit": "units"}]}, {"substance": "TbMCU without the mitochondrial targeting signal, MYTH bait or prey TMH2 replaced by WALP (…)", "values": [{"measurement": "response", "setting": "[1]", "value": 50, "unit": "units"}, {"measurement": "response", "setting": "[2]", "value": 45, "unit": "units"}]}, {"substance": "TbMCU without the mitochondrial targeting signal, MYTH bait or prey Y235A; F236A; T241E; Y248A", "values": [{"measurement": "response", "setting": "[1]", "value": 65, "unit": "units"}, {"measurement": "response", "setting": "[2]", "value": 58, "unit": "units"}]}, {"substance": "TbMCUc without the mitochondrial targeting signal, MYTH bait or prey MCUcΔ2: TMH1 replaced by WALP (…), in bait and prey", "values": [{"measurement": "response", "setting": "TbMCUcΔ2", "value": 85, "unit": "units"}]}, {"substance": "TbMCUc without the mitochondrial targeting signal, MYTH bait or prey MCUcΔ3: TMH2 replaced by WALP (…), in bait and prey", "values": [{"measurement": "response", "setting": "TbMCUcΔ3", "value": 55, "unit": "units"}]}, {"substance": "TbMCUc without the mitochondrial targeting signal, MYTH bait or prey MCUcΔ4: TMH1 and TMH2 each replaced by WALP (…), in bait and prey", "values": [{"measurement": "response", "setting": "TbMCUcΔ4", "value": 20, "unit": "units"}]}, {"substance": "TbMCUd without the mitochondrial targeting signal, MYTH bait or prey MCUdΔ2: TMH1 replaced by WALP (…), in bait and prey", "values": [{"measurement": "response", "setting": "TbMCUdΔ2", "value": 70, "unit": "units"}]}, {"substance": "TbMCUd without the mitochondrial targeting signal, MYTH bait or prey MCUdΔ3: TMH2 replaced by WALP (…), in bait and prey", "values": [{"measurement": "response", "setting": "TbMCUdΔ3", "value": 52, "unit": "units"}]}, {"substance": "TbMCUd without the mitochondrial targeting signal, MYTH bait or prey MCUdΔ4: TMH1 and TMH2 each replaced by WALP (…), in bait and prey", "values": [{"measurement": "response", "setting": "TbMCUdΔ4", "value": 15, "unit": "units"}]}]}
